Data as given in article PMC5119558, “Applying bimolecular fluorescence complementation to screen and purify aquaporin protein:protein complexes” (Protein Science : A Publication of the Protein Society, 2016).

Key:
[1] = biological target: the molecule itself; assay: pull-down + SEC; YFPN-AQP0 + YFPC-CaM* co-expressed in S. cerevisiae; membranes solubilised in DDM; HisTrap HP (Ni-NTA) by the His tag on YFPC-CaM*, eluted with 250 mM imidazole; then FSEC on Superose6 Increase (20 mM Tris-HCl pH 7.5, 100 mM NaCl, 5 mM CaCl2, 1% β-OG); fluorescent peak at 15 mL on SDS-PAGE (Coomassie), immunoblot with anti-AQP0 and anti-CaM
[2] = biological target: the molecule itself; assay: SEC; isolated AQP0 alone on SEC

Protein	stoichiometry N [1]	stoichiometry N [2]
YFPN‐AQP0 of the recloned pair YFPN‐AQP0 + YFPC‐CaM* (hexa‐histidine tag moved away from the AQP0 moiety) (natural protein, human, UniProt P30301 1-263, looked up, aquaporin 0 (AQP0), human; gene codon optimized for yeast (Genscript); As m1 but without the His tag; The purified complex is read by its size (about 500 kDa) as an octameric form of the aquaporin; also called hAQP0; source: S. cerevisiae, co-expressed with YFPC-CaM*, purified as a complex (DDM-solubilised membranes, Ni-NTA, SEC); not shown: YFPN (SYFP2 amino acids 1 to 154, linker KQKVMNH), …) MWELRSASFWRAIFAEFFATLFYVFFGLGSSLRWAPGPLHVLQVAMAFGLALATLVQSVGHISGAHVNPAVTFAFLVGSQMSLLRAFCYMAAQLLGAVAGAAVLYSVTPPAVRGNLALNTLHPAVSVGQATTVEIFLTLQFVLCIFATYDERRNGQLGSVALAVGFSLALGHLFGMYYTGAGMNPARSFAPAILTGNFTNHWVYWVGPIIGGGLGSLLYDFLLFPRLKSISERLSVLKGAKPDVSNGQPEVTGEPVELNTQAL	8	–
isolated AQP0 (expressed and purified separately) (natural protein, human, UniProt P30301 1-263, looked up, also called pure protein AQP0; source: expressed and purified separately) MWELRSASFWRAIFAEFFATLFYVFFGLGSSLRWAPGPLHVLQVAMAFGLALATLVQSVGHISGAHVNPAVTFAFLVGSQMSLLRAFCYMAAQLLGAVAGAAVLYSVTPPAVRGNLALNTLHPAVSVGQATTVEIFLTLQFVLCIFATYDERRNGQLGSVALAVGFSLALGHLFGMYYTGAGMNPARSFAPAILTGNFTNHWVYWVGPIIGGGLGSLLYDFLLFPRLKSISERLSVLKGAKPDVSNGQPEVTGEPVELNTQAL	–	4
